Target: the molecule itself
Assay: crystal structure; HTkC at 4.0 mg/mL in 50 mM Tris-HCl pH 7.0, 100 mM KCl, 10% glycerol; sitting drop vapour diffusion, reservoir 0.01 M trisodium citrate, 33% (w/v) PEG 6000; space group P212121, 1.84 Å; four monomers in the asymmetric unit; dimers to tetramer

B1: face-to-face (FtF) histone from Thermococcus kodakarensis (HTkC) (natural protein)
chain: MAEMLVKSKVKEFVKSVDPEMRVSPEFYDALEAEVKALVEKAIKRAQAEGRKTLYARHV
notes: Face-to-face histone HTkC of Thermococcus kodakarensis, product of gene TK1040 (synthesised gene cloned into pET30b, plasmid pRD503); purification was by heat, heparin and size exclusion; The crystal holds four monomers (two dimers) in the asymmetric unit, forming a torus-shaped tetramer; also called FtF histone HTkC; TK1040; source: E. coli BL21(DE3)pLysS, purified (heat step at 70 °C, HiTrap …)
B1 was tested, and the “stoichiometry N” value was 4.

— article doi:10.1101/2023.06.01.543357, “Novel histones and histone variant families in prokaryotes” (bioRxiv, 2023)
